Reference: IntAct's records for PubMed 21134644

Experiments:
itb1_human ITGB1 = itb1_human ITGB1 (UniProt P05556)
Chain of itb1_human ITGB1 (P05556 whole entry): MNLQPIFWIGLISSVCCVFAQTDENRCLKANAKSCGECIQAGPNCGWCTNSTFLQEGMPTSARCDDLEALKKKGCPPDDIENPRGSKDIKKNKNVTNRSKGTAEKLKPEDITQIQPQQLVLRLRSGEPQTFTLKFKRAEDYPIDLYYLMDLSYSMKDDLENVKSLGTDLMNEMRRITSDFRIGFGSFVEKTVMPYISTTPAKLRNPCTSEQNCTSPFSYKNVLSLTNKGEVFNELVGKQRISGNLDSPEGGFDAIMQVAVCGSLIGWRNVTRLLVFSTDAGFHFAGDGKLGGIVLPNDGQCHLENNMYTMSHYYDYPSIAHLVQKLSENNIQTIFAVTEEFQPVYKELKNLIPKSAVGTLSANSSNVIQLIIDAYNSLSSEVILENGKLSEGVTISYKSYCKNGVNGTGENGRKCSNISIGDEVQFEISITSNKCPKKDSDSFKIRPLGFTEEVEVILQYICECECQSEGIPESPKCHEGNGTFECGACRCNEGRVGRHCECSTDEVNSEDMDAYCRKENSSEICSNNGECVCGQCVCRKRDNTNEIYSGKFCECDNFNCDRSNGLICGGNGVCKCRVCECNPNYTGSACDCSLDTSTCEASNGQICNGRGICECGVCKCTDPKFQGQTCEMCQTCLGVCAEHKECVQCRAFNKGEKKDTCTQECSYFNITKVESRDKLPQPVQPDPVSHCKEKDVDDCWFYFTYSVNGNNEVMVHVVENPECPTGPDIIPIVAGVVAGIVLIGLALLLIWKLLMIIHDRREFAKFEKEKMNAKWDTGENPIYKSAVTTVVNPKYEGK

Chain of ITGB1, P05556-5 (P05556 other isoform, or with tags, fused parts or gaps): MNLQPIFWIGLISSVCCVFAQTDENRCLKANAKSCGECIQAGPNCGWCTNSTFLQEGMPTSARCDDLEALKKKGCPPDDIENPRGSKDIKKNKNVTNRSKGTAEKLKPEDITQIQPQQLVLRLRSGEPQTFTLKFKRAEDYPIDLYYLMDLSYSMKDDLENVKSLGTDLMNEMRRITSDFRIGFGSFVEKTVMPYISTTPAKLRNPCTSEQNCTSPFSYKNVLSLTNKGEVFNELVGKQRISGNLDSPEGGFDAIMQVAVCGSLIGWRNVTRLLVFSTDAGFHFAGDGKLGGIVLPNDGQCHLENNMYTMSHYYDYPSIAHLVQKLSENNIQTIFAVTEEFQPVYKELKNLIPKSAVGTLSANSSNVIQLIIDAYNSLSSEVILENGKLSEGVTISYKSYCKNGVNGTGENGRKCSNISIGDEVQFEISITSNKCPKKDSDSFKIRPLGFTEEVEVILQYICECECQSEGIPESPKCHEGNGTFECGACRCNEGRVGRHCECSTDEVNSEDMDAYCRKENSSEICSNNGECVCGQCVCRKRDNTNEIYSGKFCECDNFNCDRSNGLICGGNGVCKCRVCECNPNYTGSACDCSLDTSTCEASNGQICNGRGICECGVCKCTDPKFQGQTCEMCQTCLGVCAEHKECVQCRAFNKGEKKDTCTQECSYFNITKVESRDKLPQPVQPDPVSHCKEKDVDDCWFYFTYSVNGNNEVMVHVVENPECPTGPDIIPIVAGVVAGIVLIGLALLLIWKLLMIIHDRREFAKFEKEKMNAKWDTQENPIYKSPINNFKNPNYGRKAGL

Talin-2 (Mus musculus), Q71LX4 Y376A
effect of a mutation on the interaction (ITGB1, P05556-5): decreasing interaction | effect of a mutation on the interaction (itb1_human ITGB1): disrupting interaction
